For this assay, the target named is RQR8. The experiment in a line: cell-based or functional assay.

For 1 substance, eGFP positive cells in the sorted fraction (K562 cells, human rituximab on protein-A beads), transduced target cells with LV sorted with beads (RDpro pseudotyped LV) and transduced target cells with the purified fraction (VSV-G pseudotyped LV) results are on record in patent publication US20170240920A1.

For the substance “clinical grade human-rituximab (antibody)”, the eGFP positive cells in the sorted fraction (K562 cells, human rituximab on protein-A beads) is 89.4%; the transduced target cells with LV sorted with beads (RDpro pseudotyped LV) was found to be 14.1%; the transduced target cells with the purified fraction (VSV-G pseudotyped LV) worked out at 73.6%.
